For the series the following is noted: Aspergillus flavus, Thermal, DSC, reversible: No, whole UniProt chain shown.
The mark [1] stands for this setting: pH 6.95, Sodium phosphate 50 mM.
Setting [2] is: pH 7.45, Sodium phosphate 50 mM.

From FireProtDB (doi:10.1016/0301-4622(94)00150-i) come the findings set out here.

“And” between values parts separate entries of the source, which are not always exact repeats. Equal entries are not always repeated.

B1: Uricase wild type, Q00511 (protein)
chain: MSAVKAARYGKDNVRVYKVHKDEKTGVQTVYEMTVCVLLEGEIETSYTKADNSVIVATDSIKNTIYITAKQNPVTPPELFGSILGTHFIEKYNHIHAAHVNIVCHRWTRMDIDGKPHPHSFIRDSEEKRNVQVDVVEGKGIDIKSSLSGLTVLKSTNSQFWGFLRDEYTTLKETWDRILSTDVDATWQWKNFSGLQEVRSHVPKFDATWATAREVTLKTFAEDNSASVQATMYKMAEQILARQQLIETVEYSLPNKHYFEIDLSWHKGLQNTGKNAEVFAPQSDPNGLIKCTVGRSSLKSKL
On to B1, for which the Tm (as a rule, the temperature at the midpoint of the melting transition) worked out at 65 °C under setting [1]; 68.4 °C under setting [2]; 50.1 °C (pH 7.8, Sodium phosphate 50 mM); 49.9 °C (pH 8.8, Tris-HCl 50 mM). The “unfolding enthalpy (calorimetric)” value reads like this: under setting [1], 16.3 kcal/mol; (pH 7.2, Sodium phosphate 50 mM) 75.8 kcal/mol and 48.1 kcal/mol; (pH 7.25, Sodium phosphate 50 mM) 72 kcal/mol and 53.3 kcal/mol; under setting [2], 57.9 kcal/mol; (pH 7.8, Sodium phosphate 50 mM) 82.8 kcal/mol; (pH 8.5, Tris-HCl 50 mM) 78.9 kcal/mol and 29.7 kcal/mol. The “unfolding enthalpy (calorimetric)” value by setting is: (pH 8.8, Tris-HCl 50 mM) 80.1 kcal/mol; (pH 9.05, Tris-HCl 50 mM) 76.8 kcal/mol and 26.8 kcal/mol; (pH 9.5, carbonate 50 mM) 82.3 kcal/mol and 59.1 kcal/mol.
